# Data: patent US20190144558A1 (MAGENTA THERAPEUTICS, published 2019)
# Numbering of substitutions follows the chain as printed.
# B1: Antibody 56 (antibody, human IgG1, kappa, V domains shown)
# VH: QVQLVQSGAEVKKPGSSVKVSCKASGGTFSLYAISWVRQAPGQGLEWMGGIIPAFGTANYAQKFQGRVTITADESTSTAYMELSSLRSEDTAVYYCARGGLDTDEFDLWGRGTLVTVSS
# VL: DIQMTQSPSSLSASVGDRVTITCRASQSINSYLNWYQQKPGKAPKLLIYAASSLQSGVPSRFSGSGSGTDFTLTISSLQPEDFATYYCQQGVSDITFGGGTKVEIKR
# notes: also called Ab56; HC-56/LC-56
# B2: Antibody 54 (antibody, human IgG1, kappa, V domains shown)
# VH: B1 VH with L31S, A54I
# VL: B1 VL
# notes: also called Ab54; HC-54/LC-54
# B3: Antibody 55 (antibody, human IgG1, kappa, V domains shown)
# VH: B1 VH with S30R, L31I, A54D, T57V
# VL: B1 VL
# notes: also called Ab55; HC-55/LC-55
# B4: Antibody 57 (antibody, human IgG1, kappa, V domains shown)
# VH: B1 VH with A54H, T57L
# VL: B1 VL
# notes: also called Ab57; HC-57/LC-57
# B5: Antibody 58 (antibody, human IgG1, kappa, V domains shown)
# VH: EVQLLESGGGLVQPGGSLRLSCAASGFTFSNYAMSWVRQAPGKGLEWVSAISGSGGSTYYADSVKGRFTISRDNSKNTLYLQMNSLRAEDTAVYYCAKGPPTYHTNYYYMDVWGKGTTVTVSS
# VL: DIQMTQSPSSVSASVGDRVTITCRASQGISSWLAWYQQKPGKAPKLLIYAASSLQSGVPSRFSGSGSGTDFTLTISSLQPEDFATYYCQQTNSFPYTFGGGTKVEIKR
# notes: also called Ab58; HC-58/LC-58
# B6: Antibody 61 (antibody, human IgG1, kappa, V domains shown)
# VH: EVQLLESGGGLVQPGGSLRLSCAASGFTFSSYVMIWVRQAPGKGLEWVSSISGDSVTTYYADSVKGRFTISRDNSKNTLYLQMNSLRAEDTAVYYCAKGPPTYHTNYYYMDVWGKGTTVTVSS
# VL: B5 VL
# notes: also called Ab61; HC-61/LC-61
# B7: Antibody 67 (antibody, human IgG1, kappa, V domains shown)
# VH: EVQLVESGGGLVQPGGSLRLSCAASGFTFSDADMDWVRQAPGKGLEWVGRTRNKAGSYTTEYAASVKGRFTISRDDSKNSLYLQMNSLKTEDTAVYYCAREPKYWIDFDLWGRGTLVTVSS
# VL: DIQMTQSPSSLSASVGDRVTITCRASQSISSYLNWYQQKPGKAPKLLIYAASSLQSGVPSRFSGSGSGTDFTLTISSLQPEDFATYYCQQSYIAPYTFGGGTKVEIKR
# notes: also called Ab67; HC-67/LC-67
# B8: Antibody 66 (antibody, human IgG1, kappa, V domains shown)
# VH: B7 VH with A32H, D33Y, G56S
# VL: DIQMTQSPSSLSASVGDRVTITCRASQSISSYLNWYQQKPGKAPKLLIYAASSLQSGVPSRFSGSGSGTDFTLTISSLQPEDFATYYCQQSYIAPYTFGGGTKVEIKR
# notes: also called Ab66; HC-66/LC-66
# B9: Antibody 68 (antibody, human IgG1, kappa, V domains shown)
# VH: B7 VH with G16R, A23T, A32H, D35N, K54A
# VL: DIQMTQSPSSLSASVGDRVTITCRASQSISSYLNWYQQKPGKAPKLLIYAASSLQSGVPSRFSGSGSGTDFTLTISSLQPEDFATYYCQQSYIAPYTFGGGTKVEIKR
# notes: also called Ab68; HC-68/LC-68
# B10: Antibody 69 (antibody, human IgG1, kappa, V domains shown)
# VH: B7 VH with S30V, A32H, A55L
# VL: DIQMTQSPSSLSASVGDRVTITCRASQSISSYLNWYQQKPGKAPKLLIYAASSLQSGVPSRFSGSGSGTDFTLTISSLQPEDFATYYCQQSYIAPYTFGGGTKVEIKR
# notes: also called Ab69; HC-69/LC-69
# Target: T1, rhesus CD117 ectodomain (rhesus, UniProt F6V858 26-524)
# T1 construct: extracellular domain
# Assay: BLI (Octet Red96), IgG on anti-human Fc sensors, rhesus CD117 ectodomain at 33.3 and 11 nM, 1:1 fit
# Description: Antibody binding studies were performed at 25 degrees celsius in 1×PBS supplemented with 0.1% w/v bovine serum albumin with a Pall ForteBio Octet Red96 using biolayer interferometry (BLI).
Binder,Kd [pM],koff [s⁻¹],kon [M⁻¹ s⁻¹]
B1,280,8.57e-05,306000
B2,2600,0.000793,304000
B3,284,8.96e-05,315000
B4,288,8.57e-05,298000
B5,30300,0.00855,282000
B6,20500,0.00472,230000
B7,376,8.57e-05,228000
B8,66000,0.0258,391000
B9,374,8.98e-05,240000
B10,528,0.000126,240000
